Experimental data: patent publication US20250326839A1, “TREATMENT OF DISEASES RELATED TO COLONY-STIMULATING FACTOR 1 RECEPTOR DYSFUNCTION USING TREM2 AGONISTS” (Vigil Neuroscience, Inc., priority 2020, published 2025)

Key:
[1] = system: human monocyte-derived macrophages (hMDMs); test: Example 1E: CSF1 withdrawal, confluence and Caspase 3/7 apoptosis (Incucyte); type: cell-based; conditions: CSF1 withdrawal (0 ng/mL), plates coated with 0.4, 2.0 or 10 μg/mL, 72 hours
Experimental: PBMCs were isolated from fresh, whole blood from human donors. CD14+ monocytes were isolated using positive magnetic selection (Miltenyi). Cells were plated in UpCell® low-adhesion plates and incubated in culture media with 50 ng/mL CSF1 for 48 hours. After 48 hours, cells were non-enzymatically harvested and plated at 25,000 cells per well in cell culture plates coated with 0.4, 2.0, or 10 μg/mL of either Ab-3 or a matching isotype control, and incubated in a humidified incubator at 37C, 5% CO2 for 72 hours. Caspase-3/7 Green reporter dye was included in the some wells to determine the number of apoptotic events over time. During incubation, cells were monitored every two hours using an Incucyte S3® analyzer (2 fields of view per well, imaged at 10×). Confluence levels were determined using the Incucyte® software, and normalized to CSF1 at 50 ng/mL, which was considered as normal culture conditions. Caspase 3/7 positive counts per field of view were calculated using Incucyte® software. Significance was determined by Ordinary One-Way ANOVA, using multiple comparisons in Graphpad Prism.

[2] = system: human monocyte-derived macrophages (hMDMs); test: Example 2E: CSF1R inhibition by PLX5622, confluence and morphology (Incucyte); type: cell-based; conditions: plates coated with 10 μg/mL, plus PLX5622 1 μM, 96 hours
Experimental: PBMCs were isolated from fresh, whole blood from human donors. CD14+ monocytes were isolated using positive magnetic selection (Miltenyi). Cells were plated in UpCell® low-adhesion plates and incubated in culture media with 50 ng/mL CSF1 for 48 hours. After 48 hours, cells were non-enzymatically harvested and plated at 25,000 cells per well in cell culture plates coated with 10 μg/mL of either Ab-3 or a matching isotype control. PLX5622 was immediately added to the cultures to 1 μM, and plates were incubated in a humidified incubator at 37 C, 5% CO2 for an additional 96 hours. During incubation, cells were monitored every two hours using an Incucyte S3® analyzer (2 fields of view per well, imaged at 10×). Confluence was measured using built in S3 software, while area and eccentricity (cell shape) were measured using the built in “Cell By Cell” analysis software. Significance was determined by Student's T-test, two-tailed in Graphpad Prism.

B1: Ab-3: murinized version of a human TREM2 agonist antibody, engineered variant of 13E7; HC SEQ ID NO:2779, LC SEQ ID NO:2780 (antibody)
heavy: EVQLVQSGAEVKKPGESLKISCKGSGYSFTSYWIGWVRQMPGKGLEWMGIIYPGDADARYSPSFQGQVTISADKSISTAYLQWSSLKASDTAMYFCARRRQGIFGDALDFWGQGTLVTVSSAKTTPPSVYPLAPGSAAQTNSMVTLGCLVKGYFPEPVTVTWNSGSLSSGVHTFPAVLQSDLYTLSSSVTVPSSTWPSETVTCNVAHPASSTKVDKKIVPRDCGCKPCICTVPEVSSVFIFPPKPKDVLTITLTPKVTCVVVDISKDDPEVQFSWFVDDVEVHTAQTQPREEQFGSTFRSVSELPIMHQDWLNGKEFKCRVNSAAFPAPIEKTISKTKGRPKAPQVYTIPPPKEQMAKDKVSLTCMITDFFPEDITVEWQWNGQPAENYKNTQPIMDTDGSYFVYSKLNVQKSNWEAGNTFTCSVLHEGLHNHHTEKSLSHSPGK
light: EIVMTQSPATLSVSPGERATLSCRASQSVSSNLAWFQQKPGQAPRLLIYGASTRATGIPARFSGSGSGTEFTLTISSLQPEDFAVYYCLQDNNFPPTFGQGTKVDIKRADAAPTVSIFPPSSEQLTSGGASVVCFLNNFYPKDINVKWKIDGSERQNGVLNSWTDQDSKDSTYSMSSTLTLTKDEYERHNSYTCEATHKTSTSPIVKSFNRNEC
modifications: REGION 1..445: note = Murinized Ab-3 HC; REGION 1..214: note = Murinized Ab-3 LC
In the case of B1, the confluence ([1]; donors 16 and 26, FIGS. 1 and 2) is reported as “increased confluence levels to that of high CSF1 treated cells”, the “Caspase 3/7 levels (apoptosis)” value ([1]; donors 16 and 26, FIGS. 3 and 4) is reported as “reduced Caspase 3/7 levels to that of high CSF1 treated cells” and the confluence ([2]; FIG. 5) is reported as “restoration of confluence to levels similar to that of vehicle alone”. The “cells with “high area, high eccentricity” (ramified)” value ([2]; FIG. 6) was “restoration of “high area, high eccentricity” to levels higher than that of vehicle alone”.
